The experiment has as its target hfr1_arath HFR1 (UniProt Q9FE22).

The values below come from IntAct's records for PubMed 17699755.

Sequence of hfr1_arath HFR1 (Q9FE22 whole entry): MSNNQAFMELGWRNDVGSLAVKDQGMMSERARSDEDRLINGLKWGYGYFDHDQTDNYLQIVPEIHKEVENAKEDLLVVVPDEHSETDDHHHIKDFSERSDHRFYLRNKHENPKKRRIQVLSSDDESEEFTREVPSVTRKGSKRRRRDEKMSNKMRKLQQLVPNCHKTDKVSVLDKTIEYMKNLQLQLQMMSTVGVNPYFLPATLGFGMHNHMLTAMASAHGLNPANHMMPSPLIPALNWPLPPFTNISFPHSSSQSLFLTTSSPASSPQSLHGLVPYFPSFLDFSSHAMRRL
Sequence of Transcription factor LAF1 (Arabidopsis thaliana (Mouse-ear cress)), Q9M0K4 R97A (Q9M0K4 whole entry R97A): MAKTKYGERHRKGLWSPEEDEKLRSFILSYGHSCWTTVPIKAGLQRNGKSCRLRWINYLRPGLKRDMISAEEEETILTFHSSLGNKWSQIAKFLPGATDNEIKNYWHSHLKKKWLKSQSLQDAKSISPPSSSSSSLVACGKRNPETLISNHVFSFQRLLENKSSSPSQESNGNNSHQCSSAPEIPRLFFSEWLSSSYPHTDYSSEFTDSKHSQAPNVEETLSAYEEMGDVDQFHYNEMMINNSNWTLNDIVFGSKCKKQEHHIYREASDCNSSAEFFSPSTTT

“Transcription factor LAF1 (Arabidopsis thaliana (Mouse-ear cress)), Q9M0K4 R97A”: the “effect of a mutation on the interaction” value is “disrupting interaction”.
For “Transcription factor LAF1 (Arabidopsis thaliana (Mouse-ear cress)), Q9M0K4 W87A” the value was “decreasing interaction”.
